Target: T1, Staphylococcus haemolyticus AcrIIA13b, wild type, with C-terminal 6xHis tag (Staphylococcus haemolyticus)
T1 construct: Monomer and dimer peaks coexist in SEC; also called shAcrIIA13b; wild-type AcrIIA13b; source: E. coli BL21 (DE3), purified (Ni-NTA, SEC)
Test: ITC; PBS pH 7.4, 20 °C; AcrIIA13b (500 μM) injected into the target protein (50 μM) in the cell, 25 injections; single-site model
Conditions: both partners purified

B1: SauCas9 WED (wedge-like) domain, His-tagged (domain or fragment)
chain: LYSTRKDDKGNTLIVNNLNGLYDKDNDKLKKLINKSPEKLLMYHHDPQTYQKLKLIMEQYGDEKNPLYKYYEETGNYLTKYSKKDNGPVIKKIKYYGNKLNAHLDITDDYPNSRNKVVKLSL
Kd: 3210 nM

B2: SauCas9 WED-PI domain construct, His-tagged (domain or fragment)
chain: LYSTRKDDKGNTLIVNNLNGLYDKDNDKLKKLINKSPEKLLMYHHDPQTYQKLKLIMEQYGDEKNPLYKYYEETGNYLTKYSKKDNGPVIKKIKYYGNKLNAHLDITDDYPNSRNKVVKLSLKPYRFDVYLDNGVYKFVTVKNLDVIKKENYYEVNSKCYEEAKKLKKISNQAEFIASFYNNDLIKINGELYRVIGVNNDLLNRIEVNMIDITYREYLENMNDKRPPRIIKTIASKTQSIKKYSTDILGNLYEVKSKKHPQIIKKG
Kd: 120 nM
